In the supplement of paper PMC10065799, “High-throughput profiling of sequence recognition by tyrosine kinases and SH2 domains using bacterial peptide display” (eLife, 2023):
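For SH2 binding enrichment of the phosphorylated peptide, bacterial display in this document: peptide library displayed on the E. coli surface as eCPX fusions, selected cells deep-sequenced, score is each peptide's frequency after selection divided by its frequency in the input.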
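For phosphorylation enrichment, bacterial display in this document: 11-residue human phosphosite peptides and single-mutation variants displayed on the E. coli surface, counted by deep sequencing, each peptide's frequency after selection divided by its frequency in the unselected input library; frequency after pTyr selection over input frequency; kinase dosed for 20-30% of maximal phosphorylation in three min.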

These sequences were tested against Hck (UniProt P08631) (assay: phosphorylation enrichment, bacterial display (enrichment ratio); higher = better substrate or ligand; peptides without Tyr show the background).
Sequence of Hck (P08631 whole entry, looked up): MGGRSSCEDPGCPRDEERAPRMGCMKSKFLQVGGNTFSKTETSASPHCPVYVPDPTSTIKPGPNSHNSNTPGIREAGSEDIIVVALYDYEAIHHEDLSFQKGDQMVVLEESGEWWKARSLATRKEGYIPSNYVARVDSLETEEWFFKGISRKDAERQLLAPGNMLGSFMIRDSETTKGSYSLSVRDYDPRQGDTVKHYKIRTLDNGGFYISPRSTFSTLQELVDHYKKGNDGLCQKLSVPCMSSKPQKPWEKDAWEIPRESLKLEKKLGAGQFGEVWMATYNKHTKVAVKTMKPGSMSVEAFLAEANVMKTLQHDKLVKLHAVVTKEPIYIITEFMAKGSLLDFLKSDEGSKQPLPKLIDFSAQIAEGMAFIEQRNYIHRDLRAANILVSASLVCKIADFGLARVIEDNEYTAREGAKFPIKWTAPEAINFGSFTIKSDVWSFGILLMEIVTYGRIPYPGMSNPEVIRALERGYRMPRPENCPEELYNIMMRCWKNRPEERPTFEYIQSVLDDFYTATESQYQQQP
Sequence IYRASYYRRGD [LTK_Y676] has a phosphorylation enrichment of 1.2. Sequence SLYPGYNFRYA [P2RX7_Y291] has a phosphorylation enrichment of 0.529. LGKGSYAKVRS [TSSK2_Y23_K27R] gave a phosphorylation enrichment of 0.586. DCLASYLDKVR [KRT10_Y160_R156C] showed a phosphorylation enrichment of 0.452. LDLPGYCLLRE [CCDC116_Y291_P293L] was tested, and the phosphorylation enrichment was 0.636. Sequence MSSHHYDFKKF [ZNF445_Y428_YF] has a phosphorylation enrichment of 0.362. LSIDRYHAIVF [NPSR1_Y147_YF] was tested, and the phosphorylation enrichment was 0.861. Sequence GAMGHYVLAER [HFE_Y342] has a phosphorylation enrichment of 0.44. IDDNEYAYLKA [HNF4A_Y286] showed a phosphorylation enrichment of 0.707. LSQAKYQIRYR [CRLF1_Y272_F268S] was tested, and the phosphorylation enrichment was 0.667. FQRITYHNWRH [PDE6B_Y556_R552Q_YF] showed a phosphorylation enrichment of 0.478. For NTYEKYWPFYQ [GATM_Y103], the phosphorylation enrichment was 4.39. DGYTDYAEFAK [MCFD2_Y138_I136T] gave a phosphorylation enrichment of 0.74. DPHKIYEFVNS [IRF3_Y107] gave a phosphorylation enrichment of 10.3. Sequence KPNMNYDKLSW [FLI1_Y332_R337W] has a phosphorylation enrichment of 0.661. Sequence RRGMPYGGCGD [TGM1_Y312_R315C] has a phosphorylation enrichment of 0.659.

What follows are sequences tested against Jak2 (UniProt O60674) in the same assay as above.
Sequence of Jak2 (O60674 whole entry, looked up): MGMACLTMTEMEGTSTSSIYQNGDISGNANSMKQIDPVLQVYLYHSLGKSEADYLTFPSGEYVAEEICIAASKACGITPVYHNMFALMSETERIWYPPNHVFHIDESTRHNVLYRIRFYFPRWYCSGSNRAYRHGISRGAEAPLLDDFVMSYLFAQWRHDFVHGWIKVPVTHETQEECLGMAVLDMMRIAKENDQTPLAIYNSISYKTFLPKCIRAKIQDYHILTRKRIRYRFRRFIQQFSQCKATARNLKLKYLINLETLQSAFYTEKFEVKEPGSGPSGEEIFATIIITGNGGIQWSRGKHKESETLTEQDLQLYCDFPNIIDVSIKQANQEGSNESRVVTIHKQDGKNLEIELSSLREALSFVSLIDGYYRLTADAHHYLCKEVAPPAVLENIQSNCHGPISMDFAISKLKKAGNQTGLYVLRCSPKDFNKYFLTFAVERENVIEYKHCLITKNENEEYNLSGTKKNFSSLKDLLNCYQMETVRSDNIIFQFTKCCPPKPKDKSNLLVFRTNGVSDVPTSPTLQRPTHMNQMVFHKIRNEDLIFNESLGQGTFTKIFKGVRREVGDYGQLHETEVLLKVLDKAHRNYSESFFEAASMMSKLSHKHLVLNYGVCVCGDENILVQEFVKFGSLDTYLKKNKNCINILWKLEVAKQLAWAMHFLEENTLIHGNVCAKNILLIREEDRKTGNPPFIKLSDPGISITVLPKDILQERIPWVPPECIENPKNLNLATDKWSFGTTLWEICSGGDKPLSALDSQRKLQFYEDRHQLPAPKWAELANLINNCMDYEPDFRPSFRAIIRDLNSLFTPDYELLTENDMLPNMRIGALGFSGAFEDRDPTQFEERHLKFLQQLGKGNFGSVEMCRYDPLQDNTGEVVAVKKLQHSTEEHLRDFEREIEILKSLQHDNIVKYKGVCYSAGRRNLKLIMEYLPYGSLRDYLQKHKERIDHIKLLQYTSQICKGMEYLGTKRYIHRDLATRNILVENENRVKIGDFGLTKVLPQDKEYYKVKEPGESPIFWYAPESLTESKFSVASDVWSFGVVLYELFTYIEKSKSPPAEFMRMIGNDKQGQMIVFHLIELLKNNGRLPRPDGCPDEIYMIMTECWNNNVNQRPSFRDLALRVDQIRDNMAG
With IYRASYYRRGD [LTK_Y676] the phosphorylation enrichment was 0.621. With SLYPGYNFRYA [P2RX7_Y291] the phosphorylation enrichment was 0.495. LGKGSYAKVRS [TSSK2_Y23_K27R] was tested, and the phosphorylation enrichment was 1.33. Work on DCLASYLDKVR [KRT10_Y160_R156C] yielded a phosphorylation enrichment of 0.842. Work on LDLPGYCLLRE [CCDC116_Y291_P293L] yielded a phosphorylation enrichment of 2.21. For MSSHHYDFKKF [ZNF445_Y428_YF], the phosphorylation enrichment was 0.382. In the case of LSIDRYHAIVF [NPSR1_Y147_YF], the phosphorylation enrichment is reported as 2.75. In the case of GAMGHYVLAER [HFE_Y342], the phosphorylation enrichment is reported as 0.511. For IDDNEYAYLKA [HNF4A_Y286], the phosphorylation enrichment was 0.849. In the case of LSQAKYQIRYR [CRLF1_Y272_F268S], the phosphorylation enrichment is reported as 0.711. Sequence FQRITYHNWRH [PDE6B_Y556_R552Q_YF] has a phosphorylation enrichment of 0.791. Sequence NTYEKYWPFYQ [GATM_Y103] has a phosphorylation enrichment of 1.93. DGYTDYAEFAK [MCFD2_Y138_I136T] was tested, and the phosphorylation enrichment was 0.765. DPHKIYEFVNS [IRF3_Y107] gave a phosphorylation enrichment of 0.729. For KPNMNYDKLSW [FLI1_Y332_R337W], the phosphorylation enrichment was 0.746. Work on RRGMPYGGCGD [TGM1_Y312_R315C] yielded a phosphorylation enrichment of 0.5.

Each sequence was assayed against MERTK (UniProt Q12866) in the same assay as above.
Sequence of MERTK (Q12866 whole entry, looked up): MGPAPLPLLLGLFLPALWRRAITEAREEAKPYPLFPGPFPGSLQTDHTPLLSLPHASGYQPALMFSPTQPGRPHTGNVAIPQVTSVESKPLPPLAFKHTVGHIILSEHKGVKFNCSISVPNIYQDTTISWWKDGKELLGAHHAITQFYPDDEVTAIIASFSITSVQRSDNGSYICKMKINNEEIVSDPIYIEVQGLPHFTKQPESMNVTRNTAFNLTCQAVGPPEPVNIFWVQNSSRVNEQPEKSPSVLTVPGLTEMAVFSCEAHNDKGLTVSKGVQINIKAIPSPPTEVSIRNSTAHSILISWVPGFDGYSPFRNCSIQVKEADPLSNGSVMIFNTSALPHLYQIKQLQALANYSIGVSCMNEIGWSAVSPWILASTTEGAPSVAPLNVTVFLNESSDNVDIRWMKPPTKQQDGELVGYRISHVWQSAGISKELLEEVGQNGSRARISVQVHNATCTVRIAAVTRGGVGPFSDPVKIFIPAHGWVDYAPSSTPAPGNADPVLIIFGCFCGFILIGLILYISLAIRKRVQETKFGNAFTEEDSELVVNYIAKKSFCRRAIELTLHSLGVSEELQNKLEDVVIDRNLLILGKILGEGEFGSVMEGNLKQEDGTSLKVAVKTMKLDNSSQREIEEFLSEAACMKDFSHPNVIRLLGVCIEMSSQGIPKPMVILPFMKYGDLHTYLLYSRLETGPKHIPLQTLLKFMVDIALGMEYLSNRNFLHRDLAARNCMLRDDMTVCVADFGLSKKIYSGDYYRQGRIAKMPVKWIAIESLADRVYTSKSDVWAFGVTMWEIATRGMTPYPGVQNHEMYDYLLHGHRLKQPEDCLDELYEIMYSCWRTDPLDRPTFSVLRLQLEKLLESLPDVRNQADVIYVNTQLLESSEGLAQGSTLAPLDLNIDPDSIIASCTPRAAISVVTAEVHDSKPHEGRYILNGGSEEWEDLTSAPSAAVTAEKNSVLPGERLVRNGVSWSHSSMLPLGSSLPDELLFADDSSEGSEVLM
IYRASYYRRGD [LTK_Y676] gave a phosphorylation enrichment of 0.763. With SLYPGYNFRYA [P2RX7_Y291] the phosphorylation enrichment was 0.399. LGKGSYAKVRS [TSSK2_Y23_K27R] gave a phosphorylation enrichment of 0.744. With DCLASYLDKVR [KRT10_Y160_R156C] the phosphorylation enrichment was 0.4. For LDLPGYCLLRE [CCDC116_Y291_P293L], the phosphorylation enrichment was 0.765. With MSSHHYDFKKF [ZNF445_Y428_YF] the phosphorylation enrichment was 0.376. LSIDRYHAIVF [NPSR1_Y147_YF] gave a phosphorylation enrichment of 1.81. GAMGHYVLAER [HFE_Y342] showed a phosphorylation enrichment of 0.452. Work on IDDNEYAYLKA [HNF4A_Y286] yielded a phosphorylation enrichment of 0.423. Work on LSQAKYQIRYR [CRLF1_Y272_F268S] yielded a phosphorylation enrichment of 0.479. With FQRITYHNWRH [PDE6B_Y556_R552Q_YF] the phosphorylation enrichment was 0.41. Work on NTYEKYWPFYQ [GATM_Y103] yielded a phosphorylation enrichment of 5.5. DGYTDYAEFAK [MCFD2_Y138_I136T] was tested, and the phosphorylation enrichment was 0.463. Sequence DPHKIYEFVNS [IRF3_Y107] has a phosphorylation enrichment of 10.3. Work on KPNMNYDKLSW [FLI1_Y332_R337W] yielded a phosphorylation enrichment of 0.481. In the case of RRGMPYGGCGD [TGM1_Y312_R315C], the phosphorylation enrichment is reported as 0.454.

The sequences below were run on c-Abl (mouse) in the same assay as above.
With IYRASYYRRGD [LTK_Y676] the phosphorylation enrichment was 0.927. In the case of SLYPGYNFRYA [P2RX7_Y291], the phosphorylation enrichment is reported as 0.477. In the case of LGKGSYAKVRS [TSSK2_Y23_K27R], the phosphorylation enrichment is reported as 1.12. Work on DCLASYLDKVR [KRT10_Y160_R156C] yielded a phosphorylation enrichment of 0.706. LDLPGYCLLRE [CCDC116_Y291_P293L] showed a phosphorylation enrichment of 1.65. MSSHHYDFKKF [ZNF445_Y428_YF] was tested, and the phosphorylation enrichment was 0.39. Sequence LSIDRYHAIVF [NPSR1_Y147_YF] has a phosphorylation enrichment of 0.941. For GAMGHYVLAER [HFE_Y342], the phosphorylation enrichment was 0.505. IDDNEYAYLKA [HNF4A_Y286] showed a phosphorylation enrichment of 0.571. LSQAKYQIRYR [CRLF1_Y272_F268S] showed a phosphorylation enrichment of 0.592. FQRITYHNWRH [PDE6B_Y556_R552Q_YF] showed a phosphorylation enrichment of 0.487. NTYEKYWPFYQ [GATM_Y103] gave a phosphorylation enrichment of 1.17. DGYTDYAEFAK [MCFD2_Y138_I136T] was tested, and the phosphorylation enrichment was 0.734. For DPHKIYEFVNS [IRF3_Y107], the phosphorylation enrichment was 4.23. KPNMNYDKLSW [FLI1_Y332_R337W] was tested, and the phosphorylation enrichment was 0.41. RRGMPYGGCGD [TGM1_Y312_R315C] was tested, and the phosphorylation enrichment was 0.595.

What follows are sequences tested on c-Src in the same assay as above.
IYRASYYRRGD [LTK_Y676] showed a phosphorylation enrichment of 0.666. For SLYPGYNFRYA [P2RX7_Y291], the phosphorylation enrichment was 0.378. For LGKGSYAKVRS [TSSK2_Y23_K27R], the phosphorylation enrichment was 0.792. Work on DCLASYLDKVR [KRT10_Y160_R156C] yielded a phosphorylation enrichment of 0.419. In the case of LDLPGYCLLRE [CCDC116_Y291_P293L], the phosphorylation enrichment is reported as 0.736. Work on MSSHHYDFKKF [ZNF445_Y428_YF] yielded a phosphorylation enrichment of 0.415. LSIDRYHAIVF [NPSR1_Y147_YF] showed a phosphorylation enrichment of 0.976. In the case of GAMGHYVLAER [HFE_Y342], the phosphorylation enrichment is reported as 0.437. With IDDNEYAYLKA [HNF4A_Y286] the phosphorylation enrichment was 0.677. LSQAKYQIRYR [CRLF1_Y272_F268S] was tested, and the phosphorylation enrichment was 0.387. Sequence FQRITYHNWRH [PDE6B_Y556_R552Q_YF] has a phosphorylation enrichment of 0.417. With NTYEKYWPFYQ [GATM_Y103] the phosphorylation enrichment was 5. For DGYTDYAEFAK [MCFD2_Y138_I136T], the phosphorylation enrichment was 0.942. Sequence DPHKIYEFVNS [IRF3_Y107] has a phosphorylation enrichment of 8.03. Sequence KPNMNYDKLSW [FLI1_Y332_R337W] has a phosphorylation enrichment of 0.446. RRGMPYGGCGD [TGM1_Y312_R315C] was tested, and the phosphorylation enrichment was 0.486.

Each sequence was assayed against Grb2 SH2 (UniProt P62993) (assay: SH2 binding enrichment of the phosphorylated peptide, bacterial display (enrichment ratio); higher = better substrate or ligand; peptides without Tyr show the background).
Sequence of Grb2 SH2 (P62993 whole entry, looked up): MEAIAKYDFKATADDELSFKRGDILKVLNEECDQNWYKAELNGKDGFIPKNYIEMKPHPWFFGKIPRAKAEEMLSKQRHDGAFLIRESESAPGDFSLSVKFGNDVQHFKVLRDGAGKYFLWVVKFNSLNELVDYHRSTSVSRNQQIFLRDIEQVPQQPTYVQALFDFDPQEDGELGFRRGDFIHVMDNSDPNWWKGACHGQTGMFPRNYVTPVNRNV
Sequence IYRASYYRRGD [LTK_Y676] has an SH2 binding enrichment of 0.728. With SLYPGYNFRYA [P2RX7_Y291] the SH2 binding enrichment was 0.91. Work on LGKGSYAKVRS [TSSK2_Y23_K27R] yielded an SH2 binding enrichment of 1.73. Work on DCLASYLDKVR [KRT10_Y160_R156C] yielded an SH2 binding enrichment of 0.932. In the case of LDLPGYCLLRE [CCDC116_Y291_P293L], the SH2 binding enrichment is reported as 0.686. Work on MSSHHYDFKKF [ZNF445_Y428_YF] yielded an SH2 binding enrichment of 0.784. Work on LSIDRYHAIVF [NPSR1_Y147_YF] yielded an SH2 binding enrichment of 0.934. For GAMGHYVLAER [HFE_Y342], the SH2 binding enrichment was 1.18. IDDNEYAYLKA [HNF4A_Y286] was tested, and the SH2 binding enrichment was 0.863. In the case of LSQAKYQIRYR [CRLF1_Y272_F268S], the SH2 binding enrichment is reported as 1.29. Sequence FQRITYHNWRH [PDE6B_Y556_R552Q_YF] has an SH2 binding enrichment of 1.73. In the case of NTYEKYWPFYQ [GATM_Y103], the SH2 binding enrichment is reported as 1.14. With DGYTDYAEFAK [MCFD2_Y138_I136T] the SH2 binding enrichment was 0.651. Work on DPHKIYEFVNS [IRF3_Y107] yielded an SH2 binding enrichment of 0.902. In the case of KPNMNYDKLSW [FLI1_Y332_R337W], the SH2 binding enrichment is reported as 0.967. With RRGMPYGGCGD [TGM1_Y312_R315C] the SH2 binding enrichment was 0.544.

The sequences below were run against SHP2-C SH2 in the same assay as above.
IYRASYYRRGD [LTK_Y676] was tested, and the SH2 binding enrichment was 0.471. With SLYPGYNFRYA [P2RX7_Y291] the SH2 binding enrichment was 0.672. For LGKGSYAKVRS [TSSK2_Y23_K27R], the SH2 binding enrichment was 2.14. DCLASYLDKVR [KRT10_Y160_R156C] showed an SH2 binding enrichment of 0.711. With LDLPGYCLLRE [CCDC116_Y291_P293L] the SH2 binding enrichment was 0.674. MSSHHYDFKKF [ZNF445_Y428_YF] gave an SH2 binding enrichment of 0.544. Work on LSIDRYHAIVF [NPSR1_Y147_YF] yielded an SH2 binding enrichment of 0.691. GAMGHYVLAER [HFE_Y342] gave an SH2 binding enrichment of 0.91. IDDNEYAYLKA [HNF4A_Y286] gave an SH2 binding enrichment of 0.545. With LSQAKYQIRYR [CRLF1_Y272_F268S] the SH2 binding enrichment was 0.558. Work on FQRITYHNWRH [PDE6B_Y556_R552Q_YF] yielded an SH2 binding enrichment of 1.86. NTYEKYWPFYQ [GATM_Y103] showed an SH2 binding enrichment of 0.762. Sequence DGYTDYAEFAK [MCFD2_Y138_I136T] has an SH2 binding enrichment of 0.592. Work on DPHKIYEFVNS [IRF3_Y107] yielded an SH2 binding enrichment of 0.766. KPNMNYDKLSW [FLI1_Y332_R337W] gave an SH2 binding enrichment of 1.5. For RRGMPYGGCGD [TGM1_Y312_R315C], the SH2 binding enrichment was 0.57.

Each sequence was assayed against c-Src SH2 in the same assay as above.
Work on IYRASYYRRGD [LTK_Y676] yielded an SH2 binding enrichment of 0.439. SLYPGYNFRYA [P2RX7_Y291] was tested, and the SH2 binding enrichment was 0.666. For LGKGSYAKVRS [TSSK2_Y23_K27R], the SH2 binding enrichment was 2.29. Work on DCLASYLDKVR [KRT10_Y160_R156C] yielded an SH2 binding enrichment of 0.55. LDLPGYCLLRE [CCDC116_Y291_P293L] gave an SH2 binding enrichment of 0.661. For MSSHHYDFKKF [ZNF445_Y428_YF], the SH2 binding enrichment was 0.485. LSIDRYHAIVF [NPSR1_Y147_YF] gave an SH2 binding enrichment of 1.44. With GAMGHYVLAER [HFE_Y342] the SH2 binding enrichment was 2.46. In the case of IDDNEYAYLKA [HNF4A_Y286], the SH2 binding enrichment is reported as 0.467. LSQAKYQIRYR [CRLF1_Y272_F268S] was tested, and the SH2 binding enrichment was 0.368. For FQRITYHNWRH [PDE6B_Y556_R552Q_YF], the SH2 binding enrichment was 1.61. NTYEKYWPFYQ [GATM_Y103] showed an SH2 binding enrichment of 1.24. With DGYTDYAEFAK [MCFD2_Y138_I136T] the SH2 binding enrichment was 1.22. With DPHKIYEFVNS [IRF3_Y107] the SH2 binding enrichment was 0.609. KPNMNYDKLSW [FLI1_Y332_R337W] showed an SH2 binding enrichment of 10.2. For RRGMPYGGCGD [TGM1_Y312_R315C], the SH2 binding enrichment was 0.327.
